Results as given in publication doi:10.1101/2025.03.16.643548.

Target: MUC2C-N (human MUC2 4256-4803, C4786A; PTS3, VWCN, D4 and VWC1) (human)
Assay: cross-linking

stoichiometry N: 2
Substance: MUC2C-N (human MUC2 4256-4803, C4786A; PTS3, VWCN, D4 and VWC1) (domain or fragment)
